# Source: the DeepSol protein solubility set
# Assay: soluble on expression in E. coli; label from the status in PepcDB or PDB records
row,Sequence,soluble on expression in E. coli
1,MSLKNVTEKNREIYKQLNDRQEEISRLQRDLIQTKEQVSINSNKILVYESEMEQCKQRYQDLSQQQKDAQKKDIEKLTNEISDLKGKLSSAENANADLENKFNRLKKQAHEKLDASKKQQAALTNELNELKAIKDKLEQDLHFENAKVIDLDTKLKAHELQSEDVSRDHEKDTYRTLMEEIESLKKELQIFKTANSSSDAFEKLKVNMEKEKDRIIDERTKEFEKKLQETLNKSTSSEAEYSKDIETLKKEWLKEYEDETLRRIKEAEENLKKRIRLPSEERIQKIISKRKEELEEEFRKKLKENAGSLTFLDNKGSGEDAEEELWNSPSKGNSERPSAVAGFINQKNLKPQEQLKNVKNDVSFNDSQSMVTNKENNIVDSSAAGNKAIPTFSFGKPFFSSNTSSLQSFQNPFTASQSNINTNAPLRTLNIQPEVAVKAAINFSNVTDLTNNSTDGAKITEIGSTSKRPIESGTSSDPDTKKVKESPANDQASNEEGHHHHHH,soluble
2,LLELLLLTSELYPDPVLPALSLLPHTVRTAPAEASSLLEAGNADAVLVDARNDLSSGRGLCRLLSSTGRSIPVLAVVSEGGLVAVSADWGLDEILLLSTGPAEIDARLRLVVGRRGDLADQESLGKVSLGELVIDEGTYTARLRGRPLDLTYKEFELLKYLAQHAGRVFTRAQLLHEVWGYDFFGGTRTVDVHVRRLRAKLGPEHEALIGTVRNVGYKAVRPARGRPPAADPDDEDADPGRDGMQEPLVDPLRSQ,not soluble
3,AAIAEKDLGNAAYKQKDFEKAHVHYDKAIELDPSNITFYNNKAAVYFEEKKFAECVQFCEKAVEVGRETRADYKLIAKAMSRAGNAFQKQNDLSLAVQWFHRSLSEFRDPELVKKVKELEKQLKAAERLAYINPELAQEEKNKGNEYFKKGDYPTAMRHYNEAVKRDPENAILYSNRAACLTKLMEFQRALDDCDTCIRLDSKFIKGYIRKAACLVAMREWSKAQRAYEDALQVDPSNEEAREGVRNCLRSNDEDPEKAKERSLADPEVQEILRDPGMRMILEQMSNDPGAVREHLKNPEIFQKLMKLRD,not soluble
4,MEKKVEAILEFDKIKKQLAEFASSSLGEQAIYELAPATDFQVVQKAQLETEEGAKIIRLRGSAPITGLTDVFAHLKRLEIGGDLNGLEIYQIGSNLRVSRQMKNFMNDLLEIGVEIPLLGALSDELLVLKDVEEDIAISIDESGKILDTASEALSSIRRTLRRTEDRVREKLESYLRDRNASKMLSDAVITIRNDRYVIPVKQEYKGHYGGIVHDQSASGQTLFIEPQSVVDLNNERKALQAKEKQEIERILAEISASLAGWINEIHHNTFILGRFDFILAKARFGKALKAVTPHLSDTGIVHLIAARHPLLDAEKVVANDIYLGEDFSTIVITGPNTGGKTITLKTLGLLTLMAQSGLQIPAQEDSTIAVFENVFADIGDEQSIEQSLSTFSSHMTNIVSILEKVNHKSLILYDELGAGTDPQEGAALAIAILDASHKKGASVVATTHYPELKAYGYNRAHATNASVEFNVETLSPTYKLLIGVPGRSNAFDISRRLGLSESIITEARSLVDTESADLNDMISSLEEKRNLAEREYEEARELARGADALLKDLQKEITNYYQQKDKLLEQANEKAAGIVEKAETEAEEIIHELRTMQLNGAAGIKEHELIDAKTRLGKAKPKTINKAIPKAPKQKPHVFQAGDNVRVLSLGQKGTLLNKISDKEWNVQIGIIKMKIKTTDLEYIEPEKPKKQRIITSVHSSDSPAKSELDLRGERYEDAIQKVDKYLDEALLAGYPQVAIIHGKGTGALRTGVTEYLKNHRMVKSIRFGAAAEGGNGVTIVEFKLEHHHHHH,not soluble
5,RGSLTIYIGYSPGVGKTFEMLSNAIELFQSNVDIKIGYIEPHQRDETNALAEQLPKITTNFTKHGSHHFQYLDVDRIIEESPTIVLIDELAHTNISRDRHEKRYMDIEEILNHGIDVHTTLNIQHIESLSSQIELMTGVHVKERVPDYFIMSADVLEVVDISPEQLIKRLKAGKVYKKDRLDVAFSNFFTYAHLSELRTLTLRTVADLMSDKEKVRHNHKTS,not soluble
6,MTSVIPEQRNNPFYRDSATIASSDHTERGEWVTQAKCRNGDPDALFVRGAAQRRAAAICRHCPVAMQCCADALDNKVEFGVWGGLTERQRRALLRKKPHITNWAEYLAQGGEIAGV,not soluble
7,MSIRAEEISALIKQQIENYQSEIEVSDVGTVIQVGDGIARAHGLDNVMAGELVEFSNGVMGLAQNLEENNVGIIILGPYTEIREGDEVRRTGRIMQVPVGKELIGRVVNPLGQPVDGLGPINTTNTRPIESPAPGVMDRKSVHEPLQTGIKAIDALVPIGRGQRELIIGDRQTGKTAVALDTIINQKDEDMICIYVAIGQKESTVRNVVETLRKHGALEYTIVVTASASQPAPLLYLAPYAGVTMGEEFMYNGKHVLVVYDDLSKQAAAYRELSLLLRRPPGREAYPGDVFYLHSRLLERAAKLSDAKGGGSLTALPFIETQAGDVSAYIPTNVISITDGQIFLQSDLFFSGVRPAIDAGTSVSRVGGSAQIKAMSKVSGTLRLDLASYRELEAFAQFGSDLDKATQAKLNRGARTVEVLKQGLHKPLRVEKQVIILYALTRGFLDDIPVVDITRFEEEFHAWLDSNATDLLEEIRTTKKLADDDKFAAAINGFKKVFVASE,not soluble
8,MAHHHHHHMFSLSDTQLGISPMRQFSPSLFRQNKVAEKYRATQGTGIGPQYHQLSDGRLVRPGTSHTKLLPMLEPGETVDWEKLPSYYHWYPKEELHDYIENTTWREIKGRPTGEPLEKRLRKAITGGTFEKDEAPAPDLMPWNSATIPITKFPHERNDEEIIVVDPKTGRIIGMERETYERWKRMMEERRAGLPESDPVEYDQERYVTNKDGVVFDLSKMKYRPIFEGRWNPRRQQSTGRTNPIMT,soluble
9,MAHHHHHHMPKSSPPDEHKVLIKKLTHACASYDSASRKYLTAVKALDSSLEAVAIAIRELSQGEESEDAVTRVDRFCTSVDRHMAGSSAGASFGHNKSGRLSDSAAFNGAEYPFAAYMSDFTREVSSAVDELKEILKKIEKSRSKHDDLVAKYNKKRSEVDTMEMKLAKKNQGIATNEKYSHKLSDRDALKVQVDTGERELRAEFMELLQRRTRILLQVVHGMQTHSSKYYSHLSKAMQA,soluble
10,MSTGKIIQVIGAVIDVEFARDNTPKVYDALNVVEAGLVLEVQQQIGDGVVRTIAMGSSDGLRRGMEVKNTNAPISVPVGHGTLGRIMNVLGEPIDEAGPIEYTEKRSIHQAPPAYDELALSTEILETGIKVVDLICPFAKGGKVGLFGGAGVGKTVTMMELINNIAKEHSGYSVFAGVGERTREGNDFYYEMKDSNVLDKVSLVYGQMNEPPGNRLRVALSGLTIAEGFRDEKRDVLMFIDNIYRYTLAGTEVSALLGRMPSAVGYQPTLAAEMGALQERITSTKTGSITSVQAVYVPADDLTDPSPATTFSHLDATIVLSRQIAELGIYPAVDPLDSTSRQLDPLVVGQDHYETARAVQKVLQRYKELKDIIAILGMDELSDEDKKIVDRARKIQRFLSQPFHVAEVFTGNPGKFVSLKDTVASFKAIVNGEYDHLPEQAFYMVGSIQEAIEKAKTL,not soluble
11,MAEAATPGTTATTSGAGAAAATAAAASPTPIPTVTAPSLGAGGGGGGSDGSGGGWTKQVTCRYFMHGVCKEGDNCRYSHDLSDSPYSVVCKYFQRGYCIYGDRCRYEHSKPLKQEEATATELTTKSSLAASSSLSSIVGPLVEMNTGEAESRNSNFATVGAGSEDWVNAIEFVPGQPYCGRTAPSCTEAPLQGSVTKEESEKEQTAVETKKQLCPYAAVGECRYGENCVYLHGDSCDMCGLQLLHPMDAAQRSQHIKSCIEAHEKDMELSFAVQRSKDMVCGICMEVVYEKANPSERRFGILSNCNHTYCLKCIRKWRSAKQFESKIIKSCPECRITSNFVIPSEYWVEEKEEKQKLILKYKEAMSNKACRYFDEGRGSCPFGGNCFYKHAYPDGRREEPQRQKVGTSSRYRAQRRNHFWELIEERENSNPFDNDEEEVVTFELGEMLLMLLAAGGDDELTDSEDEWDLFHDELEDFYDLDL,soluble
12,FEKHGTYYEIFVRSFYDSDGDGIGDLKGIIEKLDYLNDGDPETIADLGVNGIWLMPIFKSPSYHGYDVTDYYKINPDYGTLEDFHKLVEAAHQRGIKVIIDLPINHTSERHPWFLKASRDKNSEYRDYYVWAGPDTDTKETKLDGGRVWHYSPTGMYYGYFWSGMPDLNYNNPEVQEKVIGIAKYWLKQGVDGFRLDGAMHIFPPAQYDKNFTWWEKFRQEIEEVKPVYLVGEVWDISETVAPYFKYGFDSTFNFKLAEAVIATAKAGFPFGFNKKAKHIYGVYDREVGFGNYIDAPFLTNHDQNRILDQLGQDRNKARVAASIYLTLPGNPFIYYGEEIGMRGQGPHEVIREPFQWYNGSGEGETYWEPAMYNDGFTSVEQEEKNLDSLLNHYRRLIHFRNENPVFYTGKIEIINGGLNVVAFRRYNDKRDLYVYHNLVNRPVKIKVASGNWTLLFNSGDKEITPVEDNNKLMYTIPAYTTIVLEKE,soluble
13,DALHDQASALFKPIPEQVTELRGQPISEQQRELGKKLFFDPRLSRSHVLSCNTCHNVGTGGADNVPTSVGHGWQKGPRNSPTVFNAVFNAAQFWDGRAKDLGEQAKGPIQNSVEMHSTPQLVEQTLGSIPEYVDAFRKAFPKAGKPVSFDNMALAIEAYEATLVTPDSPFDLYLKGDDKALDAQQKKGLKAFMDSGCSACHNGINLGGQAYFPFGLVKKPDASVLPSGDKGRFAVTKTQSDEYVFRAAPLRNVALTAPYFHSGQVWELKDAVAIMGNAQLGKQLAPDDVENIVAFLHSLSGKQPRVEYPLLPASTETTPRPAE,soluble
14,MGSDKIHHHHHHMKTTSVPVAYMPLIDAAPLIVGQEMGFAEAEGISLELIAAPSWSSVRDMLAFGRVDLAHLLSVVPVAMALRLGGVTNPMSAVSVLSVNGNVIGVSRALEARLRAAGYPFDFADAAAAGAALAKVTQGGLTIGVPFPFSMHVELLQVWRSSTPLASVPLDIRTVPPPMMAQALASGEIDAFCVGEPWGSVSVENGAGALLLPGRAIWSFAPEKVLATRADWAETEPHLLGRVMRTVWRAGKWLADPSSRTAAAELLSRPRWLDVPAELVDRALTGELAISPDGEVRDVPGFLEFHHGAANFPWRSQGKWIATQLATRTGMDPSAAARQAADVFRSDLYRAALDGTGADMPGASEKLEGSLIHPTAVASTRGQMILDTDVFFDGRIFDPTT,not soluble
15,SKLPKGTRSSVYFAQHPEKEPLPSRQEVKQTPVIMAKIKGPGPAKYLRPSCTGYIDHDISMFKAPAYTLHSRHSEKRMVCHSSPGPCYLLDPKITRFGMSSCPQVPMEERISNLRLNPTLASCQYYFEKIHPPGERRAPQYTFGYRRPYRVMDLNPAPNQYQMPLLLGPNTPVSRAAPCYSLASRDKNWFYKEDVAGGPGPTTYARPEPSIYQNRSPTYSMAKRFAYPLDLTPRPGPGSHEVQQVTVHKPHIPAFTMGIKHSLHLCPLVIDIRD,not soluble
16,MGSDKIHHHHHHMFKETLRECMEGHTLAERKAEQVMDAIMKGEATASQIASLLTVLRFRGETVAEMTGFARAMRRHSIQIEHSFSQVVDTCGTGGDDVGTFNISTATALLVSALGVPVAKHGNRAVSSKSGSADVLEALQIPIQSSPEEATASLQKHNMCFMFAPLYHVAMKHAVAPRKEIGFRTIFNLLGPLTNPARAEHQLIGVYDRNFAEKMAETLRRLGTKHSLLVAGHGGLDELSITGPSTVFEVKGDAIDRYELIPEDVGLERGDLAQIQVSTVQESATLIDQVLIGKANKSAQQIVLLNAGAALYAADRVDSIKAGVALAKEGIASGHVADHVRNLRQTDQEAEQHA,not soluble
17,MELPLDKIKLPPGFSISVWANVPDARTMTLGDKGTVFVGSKSAGNVYAITENAGKRQIRIIASKLKMPNGVAFHDGALYVSSVNRILRFDNIENTLDQPLPPRIITADYPKETYHGWRFIAFGPDGWLYVPVGSSCNVCETDLEHYALISRIRPDGSNYEVFAKGVRNTEGFDWHPVTKALWFTDISREWMGDNLPPDELNHASNQGLDFGFPYCHGKEVSDPKLGAKRDCNKFIPPAVELDPHVAPMGMRFYTGTMFPAEYHNGIFIAEHGSWNRSTKIGYRLEWVQLEVNEVARKEIFAEGWLQENEAWGRPVDVLVMPDGALLVSDDMAGVVYRISYDQPLEHHHHHH,soluble
